Positions count from the first letter of the chain named.

Experiment [1] addresses T1, mouse TNFR2 variant 019-1 (human segment 17T-54D) (mouse with a human segment).
T1 construct: Mouse TNFR2 extracellular domain with the human segment, followed by a human Fc
The experiment in a line: ELISA, TNFR2 variant coated at 0.5 µg/mL. On the technique in general: ELISA stands for enzyme-linked immunosorbent assay.

For experiment [2], the target named is T2, mouse TNFR2 variant 019-2 (human segment 56S-97C) (mouse with a human segment).
T2 construct: Mouse TNFR2 extracellular domain with the human segment, followed by a human Fc
Kind of experiment: ELISA, TNFR2 variant coated at 0.5 µg/mL.

In experiment [3] the target is T3, mouse TNFR2 variant 019-3 (human segment 98T-141K) (mouse with a human segment).
T3 construct: Mouse TNFR2 extracellular domain with the human segment, followed by a human Fc
Kind of experiment: ELISA, TNFR2 variant coated at 0.5 µg/mL.

Experiment [4] has as its target T4, mouse TNFR2 variant 019-4 (human segment 143P-181T) (mouse with a human segment).
T4 construct: Mouse TNFR2 extracellular domain with the human segment, followed by a human Fc
The experiment in a line: ELISA, TNFR2 variant coated at 0.5 µg/mL.

The target in experiment [5] is T5, mouse TNFR2 variant 019-5 (human segment 39G-75C) (mouse with a human segment).
T5 construct: Mouse TNFR2 extracellular domain with the human segment, followed by a human Fc
Kind of experiment: ELISA, TNFR2 variant coated at 0.5 µg/mL.

Experiment [6] addresses T6, mouse TNFR2 variant 019-0.5-1 (human segment 17T-31C) (mouse with a human segment).
T6 construct: Mouse TNFR2 extracellular domain with the human segment, followed by a human Fc
Kind of experiment: ELISA, TNFR2 variant coated at 0.5 µg/mL.

For experiment [7], the target named is T7, mouse TNFR2 variant 019-0.5-2 (human segment 1L-16S) (mouse with a human segment).
T7 construct: Mouse TNFR2 extracellular domain with the human segment, followed by a human Fc; also called 019-0-0.5-2
Kind of experiment: ELISA, TNFR2 variant coated at 0.5 µg/mL.

The target in the next experiment is T8, S16A.
T8 construct: also called human TNFR2 S16A
T8 receptor: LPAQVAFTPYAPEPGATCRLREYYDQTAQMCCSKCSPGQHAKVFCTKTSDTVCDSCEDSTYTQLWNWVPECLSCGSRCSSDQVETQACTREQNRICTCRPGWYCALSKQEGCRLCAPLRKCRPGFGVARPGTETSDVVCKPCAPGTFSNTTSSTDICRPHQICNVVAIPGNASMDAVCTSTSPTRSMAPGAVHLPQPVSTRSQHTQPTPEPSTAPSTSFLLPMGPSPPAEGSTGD
The experiment in a line: ELISA on coated human TNFR2 mutant S16A; lower panel.

Experiment [8] addresses T9, mouse TNFR2 variant 019-0-1 (human segment 1L-54D) (mouse with a human segment).
T9 construct: Mouse TNFR2 extracellular domain with the human segment, followed by a human Fc
Kind of experiment: ELISA on coated variant 019-0-1, epitope mapping; upper panel.

In experiment [9] the target is T10, mouse TNFR2 variant 019-0-0.5 (human segment 1L-31C) (mouse with a human segment).
T10 construct: Mouse TNFR2 extracellular domain with the human segment, followed by a human Fc
The experiment in a line: ELISA on coated variant 019-0-0.5, epitope mapping; upper panel.

For experiment [10], the target named is T11, His-tagged cynomolgus monkey TNFR2 (Sino Biological, Cat #90102-C08H) (cynomolgus monkey, UniProt A0A2K5VET2 132-366).
T11 construct: Bought reagent, analyte in BLI; also called Cynomolgus TNFR2; recombinant cynomolgus monkey TNFR2; not shown: His tag
T11 sequence: T8 receptor with A16G, S36P, P117Q, N164H, E210A, S216G, M223V
Kind of experiment: BLI (Octet RED 96), antibody on Fc capture tips, His-tagged TNFR2 as analyte, 1:1 global fit. Background: Biolayer interferometry detects binding as a change in optical thickness at a sensor tip.

For experiment [11], the target named is T12, human TNFR2 expressed on the cell surface of 293T cells (human, UniProt P20333 23-461).
T12 construct: also called HuTNFR2; human TNFR2 on cell surface
T12 sequence: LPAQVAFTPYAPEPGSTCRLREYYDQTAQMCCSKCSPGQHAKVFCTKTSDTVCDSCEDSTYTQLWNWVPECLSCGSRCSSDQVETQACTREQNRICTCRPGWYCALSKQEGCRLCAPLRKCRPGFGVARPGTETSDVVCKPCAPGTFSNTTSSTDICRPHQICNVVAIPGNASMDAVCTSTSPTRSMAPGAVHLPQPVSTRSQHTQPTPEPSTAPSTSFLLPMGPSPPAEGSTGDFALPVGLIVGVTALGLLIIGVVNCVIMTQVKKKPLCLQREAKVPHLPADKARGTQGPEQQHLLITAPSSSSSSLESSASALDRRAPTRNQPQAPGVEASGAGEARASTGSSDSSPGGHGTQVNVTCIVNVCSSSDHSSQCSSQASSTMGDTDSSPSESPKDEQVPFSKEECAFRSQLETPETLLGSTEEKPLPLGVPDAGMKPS
The experiment in a line: flow cytometry, blocking of Biotin-TNF-alpha binding to human TNFR2 on 293T cells; right panel; unit from the axis. In general terms: A flow cytometer gives signals particle by particle.

Experiment [12] deals with T13, human TNFR2, mouse Fc-tag (human).
T13 construct: also called hTNFR2-mFc; huTNFR2-mFc
T13 chain: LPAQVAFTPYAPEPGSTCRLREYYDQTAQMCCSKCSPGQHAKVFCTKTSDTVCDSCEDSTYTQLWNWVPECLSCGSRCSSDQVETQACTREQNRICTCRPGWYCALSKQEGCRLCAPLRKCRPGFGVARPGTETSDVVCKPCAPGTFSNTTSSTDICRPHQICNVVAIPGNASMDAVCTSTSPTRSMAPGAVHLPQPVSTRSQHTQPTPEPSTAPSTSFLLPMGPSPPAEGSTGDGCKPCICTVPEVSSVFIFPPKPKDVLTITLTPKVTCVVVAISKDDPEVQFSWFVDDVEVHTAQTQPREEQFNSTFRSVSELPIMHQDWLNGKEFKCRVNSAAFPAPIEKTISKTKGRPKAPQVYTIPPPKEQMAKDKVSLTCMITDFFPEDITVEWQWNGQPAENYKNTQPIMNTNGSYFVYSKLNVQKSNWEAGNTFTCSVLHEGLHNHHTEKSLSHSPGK
The experiment in a line: blocking ELISA: hTNFR2-mFc mixed with antibody, binding to coated TNF-alpha his tag; right panel; unit from the axis [b].

T5 sequence (chain, as listed by the source mutant limits assumed): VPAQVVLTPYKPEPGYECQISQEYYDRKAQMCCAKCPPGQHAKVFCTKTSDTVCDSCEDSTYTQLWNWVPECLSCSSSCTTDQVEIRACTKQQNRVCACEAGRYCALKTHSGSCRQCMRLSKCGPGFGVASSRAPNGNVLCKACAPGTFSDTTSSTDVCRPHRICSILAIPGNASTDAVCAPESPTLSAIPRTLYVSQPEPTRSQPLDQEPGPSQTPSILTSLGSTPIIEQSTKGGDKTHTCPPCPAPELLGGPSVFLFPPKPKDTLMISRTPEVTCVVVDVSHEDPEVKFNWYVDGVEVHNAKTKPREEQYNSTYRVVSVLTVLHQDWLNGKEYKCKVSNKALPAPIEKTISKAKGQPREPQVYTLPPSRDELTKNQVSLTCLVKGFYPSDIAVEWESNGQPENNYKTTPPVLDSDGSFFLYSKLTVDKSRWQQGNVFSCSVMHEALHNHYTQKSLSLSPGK
T7 sequence (chain, as listed by the source mutant limits assumed): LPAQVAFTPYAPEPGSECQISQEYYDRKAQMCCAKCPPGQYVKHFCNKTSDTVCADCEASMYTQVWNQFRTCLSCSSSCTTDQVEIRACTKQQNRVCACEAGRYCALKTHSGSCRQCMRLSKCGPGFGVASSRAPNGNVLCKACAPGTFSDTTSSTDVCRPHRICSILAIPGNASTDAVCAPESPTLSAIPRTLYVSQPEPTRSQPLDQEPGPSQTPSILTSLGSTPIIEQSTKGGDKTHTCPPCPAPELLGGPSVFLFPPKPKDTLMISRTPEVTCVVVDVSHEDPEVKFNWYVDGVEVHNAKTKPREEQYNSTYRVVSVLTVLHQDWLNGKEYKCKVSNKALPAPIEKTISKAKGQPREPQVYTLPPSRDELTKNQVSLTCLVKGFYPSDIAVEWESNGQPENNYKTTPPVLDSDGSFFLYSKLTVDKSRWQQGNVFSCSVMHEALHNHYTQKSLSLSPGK
T3 sequence (chain, as listed by the source mutant limits assumed): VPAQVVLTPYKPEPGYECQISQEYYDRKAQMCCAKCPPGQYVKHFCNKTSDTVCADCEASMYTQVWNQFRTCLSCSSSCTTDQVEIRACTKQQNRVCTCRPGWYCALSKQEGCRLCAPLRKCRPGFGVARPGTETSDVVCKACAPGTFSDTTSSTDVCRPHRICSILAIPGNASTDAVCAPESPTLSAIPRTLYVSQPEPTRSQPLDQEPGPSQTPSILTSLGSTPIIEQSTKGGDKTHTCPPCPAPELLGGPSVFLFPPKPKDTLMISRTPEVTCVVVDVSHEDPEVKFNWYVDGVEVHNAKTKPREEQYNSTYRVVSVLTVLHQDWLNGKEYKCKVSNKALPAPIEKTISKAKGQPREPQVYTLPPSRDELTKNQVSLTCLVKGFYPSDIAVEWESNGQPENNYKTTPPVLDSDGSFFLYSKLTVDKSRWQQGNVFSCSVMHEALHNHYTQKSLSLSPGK
T6 sequence (chain, as listed by the source mutant limits assumed): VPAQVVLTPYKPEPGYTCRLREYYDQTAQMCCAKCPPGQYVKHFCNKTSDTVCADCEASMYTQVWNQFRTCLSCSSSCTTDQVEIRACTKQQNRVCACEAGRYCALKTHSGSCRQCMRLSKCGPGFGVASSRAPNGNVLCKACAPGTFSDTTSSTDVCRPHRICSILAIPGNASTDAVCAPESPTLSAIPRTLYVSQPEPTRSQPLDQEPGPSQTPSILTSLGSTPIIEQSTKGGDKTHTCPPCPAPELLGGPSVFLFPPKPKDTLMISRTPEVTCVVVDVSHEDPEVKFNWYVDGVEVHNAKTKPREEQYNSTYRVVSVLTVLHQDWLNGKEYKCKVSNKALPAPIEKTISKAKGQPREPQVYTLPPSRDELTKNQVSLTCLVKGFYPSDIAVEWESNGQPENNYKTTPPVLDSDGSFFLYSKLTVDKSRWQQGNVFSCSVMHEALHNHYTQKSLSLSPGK
T4 sequence (chain, as listed by the source mutant limits assumed): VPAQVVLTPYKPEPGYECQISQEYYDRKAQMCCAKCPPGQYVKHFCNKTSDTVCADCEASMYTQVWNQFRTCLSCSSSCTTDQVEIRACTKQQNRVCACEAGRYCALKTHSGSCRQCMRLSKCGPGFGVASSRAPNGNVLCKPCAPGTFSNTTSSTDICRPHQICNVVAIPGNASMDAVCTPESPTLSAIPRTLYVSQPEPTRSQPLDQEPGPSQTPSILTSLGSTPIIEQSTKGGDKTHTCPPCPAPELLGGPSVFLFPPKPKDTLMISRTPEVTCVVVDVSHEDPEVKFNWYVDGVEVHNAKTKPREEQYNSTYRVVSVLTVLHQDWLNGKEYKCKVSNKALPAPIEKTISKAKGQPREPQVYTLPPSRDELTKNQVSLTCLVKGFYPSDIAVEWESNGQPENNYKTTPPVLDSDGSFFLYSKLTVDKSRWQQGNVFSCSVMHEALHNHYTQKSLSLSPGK
T1 sequence (chain, as listed by the source mutant limits assumed): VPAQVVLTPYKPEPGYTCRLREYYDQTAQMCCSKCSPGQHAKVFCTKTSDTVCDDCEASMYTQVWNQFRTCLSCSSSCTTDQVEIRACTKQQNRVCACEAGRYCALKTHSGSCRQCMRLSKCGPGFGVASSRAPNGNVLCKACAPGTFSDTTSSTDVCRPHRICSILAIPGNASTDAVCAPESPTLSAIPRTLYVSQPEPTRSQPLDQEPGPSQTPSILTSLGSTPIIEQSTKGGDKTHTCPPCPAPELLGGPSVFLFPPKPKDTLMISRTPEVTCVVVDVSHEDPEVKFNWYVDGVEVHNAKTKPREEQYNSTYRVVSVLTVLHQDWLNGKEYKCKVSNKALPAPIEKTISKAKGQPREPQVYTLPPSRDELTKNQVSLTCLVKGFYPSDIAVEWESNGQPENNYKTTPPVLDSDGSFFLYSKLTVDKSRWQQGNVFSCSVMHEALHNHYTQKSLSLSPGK
T2 sequence (chain, as listed by the source mutant limits assumed): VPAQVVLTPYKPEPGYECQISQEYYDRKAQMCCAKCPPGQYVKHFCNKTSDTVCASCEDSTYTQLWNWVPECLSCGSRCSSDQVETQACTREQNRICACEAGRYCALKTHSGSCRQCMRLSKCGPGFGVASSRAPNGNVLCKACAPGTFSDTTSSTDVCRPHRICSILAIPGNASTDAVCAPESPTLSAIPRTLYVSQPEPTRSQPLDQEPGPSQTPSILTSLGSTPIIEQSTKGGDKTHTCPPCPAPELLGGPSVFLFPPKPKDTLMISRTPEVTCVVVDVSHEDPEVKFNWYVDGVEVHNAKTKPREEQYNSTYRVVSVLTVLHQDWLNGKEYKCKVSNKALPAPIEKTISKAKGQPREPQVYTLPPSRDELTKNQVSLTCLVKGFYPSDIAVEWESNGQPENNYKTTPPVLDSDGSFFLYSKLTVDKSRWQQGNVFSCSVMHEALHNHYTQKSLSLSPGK

B1: humanized antibody hu3-E (Hu3-H3/Hu3-L1) (antibody, human IgG1, kappa, V domains shown)
VH: QIQLVQSGAEVKKPGASVKVSCKASGYTFTTYGMSWVRQAPGQGLEWMGWIHTYSGVPTYADDFKGRFAFTLDTSTSTAYMELRSLRSDDTAVYYCARGLYGVDYWGQGTLVTVSS
VL: EIVMTQSPATLSLSPGERATLSCKASENVVTYVSWYQQKPGQAPRLLIYGASNRYTGIPARFSGSGSATDFTLTISSLQPEDFAVYYCGQSYTYPYTFGQGTKLEIKR
notes: Humanized form of 43B7A4, human IgG1/kappa
Turning to B1, the binding result in experiment [1], in experiment [2], in experiment [3], in experiment [4], in [5] and in [6] was “no binding (tested: starting concentration 0.4 µg/mL)” throughout. The binding result is recorded as “no binding (tested: starting concentration 0.4 µg/mL)” in experiment [7] and “binds” with S16A. Also, the “EC50 (read off the curve)” value in experiment [8] and in experiment [9] was roughly 6 ng/mL each time. In experiment [10], the affinity, expressed as Kd, was 3.62 nM. Further, in experiment [10], the koff (commonly the first-order rate constant of dissociation) stood at 0.00185 s⁻¹. The kon (commonly a measure of how fast the partners come together) in experiment [10] came to 512000 M⁻¹ s⁻¹. The results for the IC50 in experiment [11] and in experiment [12] were 11 nM and 0.282 nM, respectively.

The record behind these values is patent publication US11912777 (NANJING LEADS BIOLABS, dated 2024).
